Assay results taken from the supplement of paper PMC9112550, “Optimization of the antimicrobial peptide Bac7 by deep mutational scanning” (BMC Biology, 2022).

Tested on: Escherichia coli TOP10
Assay: shrunken log2 fold change of peptide-encoding DNA abundance (4.5 h post-induction vs induction); higher = less antimicrobial activity (less host growth inhibition)
Settings: time post-induction: 4.5 h; library: site-saturation at positions 5, 18, 19, 20
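Note: peptides expressed intracellularly from a pBAD plasmid library in pooled LB shake-flask culture, induced with 0.3% L-arabinose, DNA abundance read by NGS, three biological replicates, DESeq2 with apeglm shrinkage.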

Sequence	shrunken log2 fold change
RRIRERPPRLPRPRPRPLKQPRP	-0.121
RRIRERPPRLPRPRPRPLLTPRP	-0.116
RRIRERPPRLPRPRPRPLMAPRP	-0.169
RRIRERPPRLPRPRPRPLNRPRP	0.0599
RRIRERPPRLPRPRPRPLPVPRP	-0.0551
RRIRERPPRLPRPRPRPLQKPRP	-0.113
RRIRERPPRLPRPRPRPLQQPRP	0.0643
RRIRERPPRLPRPRPRPLVSPRP	-0.055
RRIRERPPRLPRPRPRPLVVPRP	0.0509
RRIRERPPRLPRPRPRPLWDPRP	0.108
RRIRERPPRLPRPRPRPLWGPRP	0.0859
RRIRERPPRLPRPRPRPLWNPRP	-0.298
RRIRERPPRLPRPRPRPLYDPRP	-1.62
RRIRERPPRLPRPRPRPLYFPRP	-0.764
RRIRERPPRLPRPRPRPMAMPRP	0.0346
RRIRERPPRLPRPRPRPMCFPRP	-0.176
RRIRERPPRLPRPRPRPMDCPRP	-0.149
RRIRERPPRLPRPRPRPMDIPRP	-0.235
RRIRERPPRLPRPRPRPMDLPRP	-0.199
RRIRERPPRLPRPRPRPMDRPRP	0.0196
RRIRERPPRLPRPRPRPMEPPRP	0.0704
RRIRERPPRLPRPRPRPMFFPRP	-0.0867
RRIRERPPRLPRPRPRPMFGPRP	0.0215
RRIRERPPRLPRPRPRPMFLPRP	-0.206
RRIRERPPRLPRPRPRPMFRPRP	-0.737

Sequence	shrunken log2 fold change
RRIRERPPRLPRPRPRPMGMPRP	-0.00992
RRIRERPPRLPRPRPRPMGSPRP	0.00489
RRIRERPPRLPRPRPRPMGWPRP	-0.218
RRIRERPPRLPRPRPRPMHAPRP	0.262
RRIRERPPRLPRPRPRPMHCPRP	-0.0195
RRIRERPPRLPRPRPRPMHIPRP	-0.185
RRIRERPPRLPRPRPRPMHKPRP	0.0621
RRIRERPPRLPRPRPRPMHTPRP	0.102
RRIRERPPRLPRPRPRPMITPRP	-0.0683
RRIRERPPRLPRPRPRPMKDPRP	0.13
RRIRERPPRLPRPRPRPMKMPRP	0.0259
RRIRERPPRLPRPRPRPMLGPRP	0.00848
RRIRERPPRLPRPRPRPMLQPRP	-0.161
RRIRERPPRLPRPRPRPMMVPRP	0.0544
RRIRERPPRLPRPRPRPMNCPRP	0.0528
RRIRERPPRLPRPRPRPMNGPRP	-0.0134
RRIRERPPRLPRPRPRPMNWPRP	0.0377
RRIRERPPRLPRPRPRPMNYPRP	-0.981
RRIRERPPRLPRPRPRPMPTPRP	-0.00177
RRIRERPPRLPRPRPRPMQRPRP	-0.00559
RRIRERPPRLPRPRPRPMRTPRP	0.0487
RRIRERPPRLPRPRPRPMTSPRP	-0.212
RRIRERPPRLPRPRPRPMTTPRP	-0.023
RRIRERPPRLPRPRPRPMVIPRP	-0.0351
RRIRERPPRLPRPRPRPMVNPRP	-0.0701

Sequence	shrunken log2 fold change
RRIRERPPRLPRPRPRPMWGPRP	-0.016
RRIRERPPRLPRPRPRPMYCPRP	-0.064
RRIRERPPRLPRPRPRPNANPRP	0.343
RRIRERPPRLPRPRPRPNARPRP	-0.0167
RRIRERPPRLPRPRPRPNCHPRP	-0.336
RRIRERPPRLPRPRPRPNCKPRP	-0.832
RRIRERPPRLPRPRPRPNCMPRP	-0.526
RRIRERPPRLPRPRPRPNDCPRP	-0.0231
RRIRERPPRLPRPRPRPNEAPRP	-0.0218
RRIRERPPRLPRPRPRPNEGPRP	-0.0857
RRIRERPPRLPRPRPRPNFHPRP	-0.382
RRIRERPPRLPRPRPRPNFNPRP	-0.376
RRIRERPPRLPRPRPRPNGWPRP	-0.00266
RRIRERPPRLPRPRPRPNHIPRP	-0.42
RRIRERPPRLPRPRPRPNIKPRP	-0.788
RRIRERPPRLPRPRPRPNLHPRP	0.504
RRIRERPPRLPRPRPRPNLWPRP	0.0252
RRIRERPPRLPRPRPRPNNLPRP	-1.05
RRIRERPPRLPRPRPRPNQKPRP	-0.108
RRIRERPPRLPRPRPRPNQPPRP	0.0495
RRIRERPPRLPRPRPRPNSEPRP	-0.391
RRIRERPPRLPRPRPRPNSKPRP	-0.863
RRIRERPPRLPRPRPRPNSQPRP	-0.389
RRIRERPPRLPRPRPRPNTFPRP	-0.388
RRIRERPPRLPRPRPRPNVNPRP	-0.34

Sequence	shrunken log2 fold change
RRIRERPPRLPRPRPRPNVVPRP	0.0366
RRIRERPPRLPRPRPRPNWFPRP	-0.0607
RRIRERPPRLPRPRPRPNWYPRP	-0.563
RRIRERPPRLPRPRPRPNYFPRP	-0.57
RRIRERPPRLPRPRPRPPCYPRP	-0.396
RRIRERPPRLPRPRPRPPECPRP	0.0263
RRIRERPPRLPRPRPRPPEDPRP	2.12
RRIRERPPRLPRPRPRPPFFPRP	0.0761
RRIRERPPRLPRPRPRPPFQPRP	0.016
RRIRERPPRLPRPRPRPPFTPRP	1.17
RRIRERPPRLPRPRPRPPGAPRP	0.573
RRIRERPPRLPRPRPRPPGKPRP	0.28
RRIRERPPRLPRPRPRPPHWPRP	0.223
RRIRERPPRLPRPRPRPPIQPRP	-0.27
RRIRERPPRLPRPRPRPPIWPRP	-0.0729
RRIRERPPRLPRPRPRPPKAPRP	0.312
RRIRERPPRLPRPRPRPPKVPRP	-0.0931
RRIRERPPRLPRPRPRPPLIPRP	-0.435
RRIRERPPRLPRPRPRPPLVPRP	-0.0197
RRIRERPPRLPRPRPRPPMNPRP	-0.82
RRIRERPPRLPRPRPRPPNKPRP	-0.243
RRIRERPPRLPRPRPRPPQRPRP	0.315
RRIRERPPRLPRPRPRPPQWPRP	0.0679
RRIRERPPRLPRPRPRPPVAPRP	0.658
RRIRERPPRLPRPRPRPPVKPRP	0.0254

Sequence	shrunken log2 fold change
RRIRERPPRLPRPRPRPPVNPRP	0.148
RRIRERPPRLPRPRPRPPVTPRP	-0.152
RRIRERPPRLPRPRPRPPWMPRP	-0.22
RRIRERPPRLPRPRPRPPWNPRP	-0.246
RRIRERPPRLPRPRPRPPYFPRP	-0.441
RRIRERPPRLPRPRPRPPYMPRP	-1.73
RRIRERPPRLPRPRPRPPYPPRP	-0.32
RRIRERPPRLPRPRPRPQCNPRP	0.117
RRIRERPPRLPRPRPRPQCTPRP	-0.012
RRIRERPPRLPRPRPRPQDGPRP	-0.113
RRIRERPPRLPRPRPRPQDIPRP	-0.135
RRIRERPPRLPRPRPRPQEAPRP	-0.018
RRIRERPPRLPRPRPRPQEFPRP	-0.0119
RRIRERPPRLPRPRPRPQEIPRP	0.0133
RRIRERPPRLPRPRPRPQFPPRP	-0.253
RRIRERPPRLPRPRPRPQFTPRP	-0.472
RRIRERPPRLPRPRPRPQIAPRP	0.0377
RRIRERPPRLPRPRPRPQIHPRP	-0.835
RRIRERPPRLPRPRPRPQKLPRP	-0.69
RRIRERPPRLPRPRPRPQLSPRP	0.1
RRIRERPPRLPRPRPRPQMQPRP	-0.173
RRIRERPPRLPRPRPRPQPCPRP	-0.312
RRIRERPPRLPRPRPRPQQFPRP	-0.0731
RRIRERPPRLPRPRPRPQRKPRP	0.0503
RRIRERPPRLPRPRPRPQTFPRP	-0.0695

Sequence	shrunken log2 fold change
RRIRERPPRLPRPRPRPQVAPRP	-0.366
RRIRERPPRLPRPRPRPQVFPRP	-0.0552
RRIRERPPRLPRPRPRPQWNPRP	-0.33
RRIRERPPRLPRPRPRPQWTPRP	-0.0833
RRIRERPPRLPRPRPRPQYEPRP	-0.624
RRIRERPPRLPRPRPRPQYWPRP	-0.617
RRIRERPPRLPRPRPRPRAIPRP	0.0706
RRIRERPPRLPRPRPRPRCSPRP	0.0243
RRIRERPPRLPRPRPRPRCYPRP	-0.138
RRIRERPPRLPRPRPRPREGPRP	0.46
RRIRERPPRLPRPRPRPRFCPRP	-0.0399
RRIRERPPRLPRPRPRPRFTPRP	1.87
RRIRERPPRLPRPRPRPRGDPRP	0.0639
RRIRERPPRLPRPRPRPRGWPRP	0.917
RRIRERPPRLPRPRPRPRHRPRP	-0.114
RRIRERPPRLPRPRPRPRICPRP	-0.111
RRIRERPPRLPRPRPRPRIDPRP	-0.0634
RRIRERPPRLPRPRPRPRIGPRP	-0.0649
RRIRERPPRLPRPRPRPRKKPRP	-0.111
RRIRERPPRLPRPRPRPRKLPRP	-0.0356
RRIRERPPRLPRPRPRPRMDPRP	-0.495
RRIRERPPRLPRPRPRPRNFPRP	-0.456
RRIRERPPRLPRPRPRPRNRPRP	-0.134
RRIRERPPRLPRPRPRPRPSPRP	-0.093
RRIRERPPRLPRPRPRPRQIPRP	0.0409
